Results on seven molecules are retold here after patent US10550165B2, “Peptide for inducing regeneration of tissue and use thereof” (STEMRIM INC., priority 2011, dated 2020).

For test [1], the system named is mouse bone marrow mesenchymal stem cell line (MSC-1 cells), PDGFRα-positive. The experiment in a line: Migration assay (Boyden / 48-well chemotaxis chamber) on bone marrow mesenchymal stem cell line MSC-1. Format: cell-based. The conditions noted are these: 2 μM; for migration-promoting activity: human HMGB1 fragments 89-215, 89-205, 89-195, 89-185 and their Q column fractions, E. coli, FIGS. 19B and 19D. Summed up:
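Mouse MSC-1 cells (3×10^6 cells/ml in D-MEM with 10% FBS) loaded in the upper wells of a 48-well Boyden chamber with 8 μm polycarbonate membrane; mouse HMGB1 peptides or HEK293-made HMGB1 in lower wells at 100 μg/ml, 5 μM or 10 μM; PBS as negative control. After 4 h at 37° C, migrated cells were Diff-Quik stained.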

Test [2] has as its system human-derived bone marrow mesenchymal stem cells (hMSC). The test is described as follows: Migration assay on human-derived bone marrow mesenchymal stem cells. Conditions: human HMGB1 fragments produced in E. coli, 2 μM, FIG. 21B. Format: cell-based. From the text:
Human HMGB1 fragments (2-215, 2-84, 2-44, 45-84, 85-169, 89-185, 89-195, and 89-205) were produced in E. coli and purified using appropriate columns in the same manner as described in Examples 14, 15, and 16 above. However, 89-215 was purified by the same method as used for 89-205 in Example 15.
Using human-derived bone marrow mesenchymal stem cells, each fragment was examined by the same migration assay performed on mouse-derived bone marrow mesenchymal stem cells (MSC-1) as described above. The fragments were used at a final concentration of 2 μM. The human-derived bone marrow mesenchymal stem cells used were hMSC (human Mesenchymal Stem Cell, Takara) at fourth passage. The growth medium used was a mesenchymal stem cell growth medium (MF medium, TOYOBO). The cells were cultured in an incubator under 5% CO2 at 37° C. The medium was changed with a fresh medium every two to four days. The cells were passaged when they reached 80% confluency.

The next test has as its system mesoangioblasts. The conditions noted are these: Palumbo et al., J. Cell Biol. 2004; cited from earlier work.
Where [3] appears, read: produced in E. coli, FIGS. 20B and 20C.

B1: Human HMGB1 fragment (85-169): human HMGB1 fragment, positions 85 to 169, produced in E. coli (protein, UniProt P09429 85-169, looked up, fragment)
chain: TKKKFKDPNAPKRPPSAFFLFCSEYRPKIKGEHPGLSIGDVAKKLGEMWNNTAADDKQPYEKKAAKLKEKYEKDIAAYRAKGKPD
In the case of B1, the “migration-promoting activity compared with 2-215” value in test [1] (produced in E. coli, FIG. 20A) is “stronger migration-promoting activity on bone marrow mesenchymal stem cells than human HMGB1 fragment (2-215)”. Moreover, in test [1] (setting [3]), the “migration-promoting activity per equal mass (reference taken as 1)” value is recorded as 3.6 times and the “migration-promoting activity per molar (reference taken as 1)” value stood at 1.59 times. Besides, the migration-promoting activity entry in test [2] is “greater than that of human HMGB1 fragment (2-215)”.

B2: amino acids of positions 90 to 176: HMGB1 sequence consisting of the amino acids of positions 90 to 176 (Palumbo et al.) (protein, UniProt P09429 90-176, looked up, fragment)
chain: KDPNAPKRPPSAFFLFCSEYRPKIKGEHPGLSIGDVAKKLGEMWNNTAADDKQPYEKKAAKLKEKYEKDIAAYRAKGKPDAAKKGVV
For B2, in the test on mesoangioblasts, the cell migration-promoting activity entry was “almost no activity”.

B3: amino acids of positions 1 to 187: HMGB1 sequence of positions 1 to 187 resulting from cleavage at the C terminal end (Palumbo et al.) (protein, UniProt P09429 1-187, looked up, fragment)
chain: MGKGDPKKPRGKMSSYAFFVQTCREEHKKKHPDASVNFSEFSKKCSERWKTMSAKEKGKFEDMAKADKARYEREMKTYIPPKGETKKKFKDPNAPKRPPSAFFLFCSEYRPKIKGEHPGLSIGDVAKKLGEMWNNTAADDKQPYEKKAAKLKEKYEKDIAAYRAKGKPDAAKKGVVKAEKSKKKKEE
As to B3, the cell migration-promoting activity result in the test on mesoangioblasts was “retains the cell migration-promoting activity of HMGB1”.

B4: 89-195: human HMGB1 fragment, positions 89 to 195, produced in E. coli (protein, UniProt P09429 89-195, looked up, fragment)
chain: FKDPNAPKRPPSAFFLFCSEYRPKIKGEHPGLSIGDVAKKLGEMWNNTAADDKQPYEKKAAKLKEKYEKDIAAYRAKGKPDAAKKGVVKAEKSKKKKEEEEDEEDEE
With B4, the migration-promoting activity entry in test [1] was “stronger activity than any fragments between positions 89 and 215”; in test [2] it was “exhibited stronger activity”.

B5: 89-185: human HMGB1 fragment, positions 89 to 185, produced in E. coli (protein, UniProt P09429 89-185, looked up, fragment)
chain: FKDPNAPKRPPSAFFLFCSEYRPKIKGEHPGLSIGDVAKKLGEMWNNTAADDKQPYEKKAAKLKEKYEKDIAAYRAKGKPDAAKKGVVKAEKSKKKK
For B5, the migration-promoting activity result was “stronger activity than any fragments between positions 89 and 215” in test [1]; “exhibited stronger activity” in test [2].

B6: amino acids of positions 1 to 89: HMGB1 sequence consisting of the amino acids of positions 1 to 89 (Palumbo et al.) (protein, UniProt P09429 1-89, looked up, fragment)
chain: MGKGDPKKPRGKMSSYAFFVQTCREEHKKKHPDASVNFSEFSKKCSERWKTMSAKEKGKFEDMAKADKARYEREMKTYIPPKGETKKKF
Consider B6, for which the cell migration-promoting activity entry with mesoangioblasts is recorded as “almost no activity”.

B7: amino acids of positions 1 to 176: HMGB1 sequence consisting of the amino acids of positions 1 to 176 (Palumbo et al.) (protein, UniProt P09429 1-176, looked up, fragment)
chain: MGKGDPKKPRGKMSSYAFFVQTCREEHKKKHPDASVNFSEFSKKCSERWKTMSAKEKGKFEDMAKADKARYEREMKTYIPPKGETKKKFKDPNAPKRPPSAFFLFCSEYRPKIKGEHPGLSIGDVAKKLGEMWNNTAADDKQPYEKKAAKLKEKYEKDIAAYRAKGKPDAAKKGVV
Take B7: the cell migration-promoting activity result in the test on mesoangioblasts is listed as “almost no activity”.
